In ChEMBL document CHEMBL3593243, “Discovery of novel, potent, selective and cellular active ADC type PTP1B inhibitors via fragment-docking-oriented de novel design” (Bioorg Med Chem, 2015):

Legend:
[1] = substrate: CCOc1cc(NS(C)(=O)=O)c(OCC)cc1CNC(=O)Nc1ccc(OC)cc1; conditions: Homo sapiens; 0.8 uM
Description: Inhibition of recombinant PTP1B (unknown origin) using pNPP as substrate assessed as enzyme Vmax at 0.8 uM after 30 mins by Michaelis-Menten plot analysis

[2] = substrate: CCOc1cc(NS(C)(=O)=O)c(OCC)cc1CNC(=O)Nc1ccc(OC)cc1; conditions: Homo sapiens; 0.1 uM
Description: Inhibition of recombinant PTP1B (unknown origin) using pNPP as substrate assessed as enzyme Km at 0.1 uM after 30 mins by Michaelis-Menten plot analysis

[3] = substrate: CCOc1cc(NS(C)(=O)=O)c(OCC)cc1CNC(=O)Nc1ccc(OC)cc1; conditions: Homo sapiens; 0.4 uM
Description: Inhibition of recombinant PTP1B (unknown origin) using pNPP as substrate assessed as enzyme Km at 0.4 uM after 30 mins by Michaelis-Menten plot analysis

[4] = substrate: CCOc1cc(NS(C)(=O)=O)c(OCC)cc1CNC(=O)Nc1ccc(OC)cc1; conditions: Homo sapiens; 0.4 uM; remark: listed apart in the source
Description: Inhibition of recombinant PTP1B (unknown origin) using pNPP as substrate assessed as enzyme Vmax at 0.4 uM after 30 mins by Michaelis-Menten plot analysis

[5] = substrate: CCOc1cc(NS(C)(=O)=O)c(OCC)cc1CNC(=O)Nc1ccc(OC)cc1; conditions: Homo sapiens; 0.2 uM
Description: Inhibition of recombinant PTP1B (unknown origin) using pNPP as substrate assessed as enzyme Vmax at 0.2 uM after 30 mins by Michaelis-Menten plot analysis

[6] = substrate: CCOc1cc(NS(C)(=O)=O)c(OCC)cc1CNC(=O)Nc1ccc(OC)cc1; conditions: Homo sapiens; 0.1 uM; remark: listed apart in the source
Description: Inhibition of recombinant PTP1B (unknown origin) using pNPP as substrate assessed as enzyme Vmax at 0.1 uM after 30 mins by Michaelis-Menten plot analysis

[7] = substrate: CCOc1cc(NS(C)(=O)=O)c(OCC)cc1CNC(=O)Nc1ccc(OC)cc1; conditions: Homo sapiens; 0.8 uM; remark: listed apart in the source
Description: Inhibition of recombinant PTP1B (unknown origin) using pNPP as substrate assessed as enzyme Km at 0.8 uM after 30 mins by Michaelis-Menten plot analysis

[8] = substrate: CCOc1cc(NS(C)(=O)=O)c(OCC)cc1CNC(=O)Nc1ccc(OC)cc1; conditions: Homo sapiens; 0.2 uM; remark: listed apart in the source
Description: Inhibition of recombinant PTP1B (unknown origin) using pNPP as substrate assessed as enzyme Km at 0.2 uM after 30 mins by Michaelis-Menten plot analysis

B1: Tyrosine-protein phosphatase non-receptor type 1 (Homo sapiens), P18031 (protein)
chain: MEMEKEFEQIDKSGSWAAIYQDIRHEASDFPCRVAKLPKNKNRNRYRDVSPFDHSRIKLHQEDNDYINASLIKMEEAQRSYILTQGPLPNTCGHFWEMVWEQKSRGVVMLNRVMEKGSLKCAQYWPQKEEKEMIFEDTNLKLTLISEDIKSYYTVRQLELENLTTQETREILHFHYTTWPDFGVPESPASFLNFLFKVRESGSLSPEHGPVVVHCSAGIGRSGTFCLADTCLLLMDKRKDPSSVDIKKVLLEMRKFRMGLIQTADQLRFSYLAVIEGAKFIMGDSSVQDQWKELSHEDLEPPPEHIPPPPRPPKRILEPHNGKCREFFPNHQWVKEETQEDKDCPIKEEKGSPLNAAPYGIESMSQDTEVRSRVVGGSLRGAQAASPAKGEPSLPEKDEDHALSYWKPFLVNMCVATVLTAGAYLCYRFLFNSNT
[1]
  Vmax (milli optical density/minute): 52.5
[2]
  Km: 2.96 mM
[3]
  Km: 4.52 mM
[4]
  Vmax (milli optical density/minute): 48.9
[5]
  Vmax (milli optical density/minute): 54.8
[6]
  Vmax (milli optical density/minute): 58.3
[7]
  Km: 7.32 mM
[8]
  Km: 3.89 mM
